The labels stand for the following.
T1: Ep-CAM (UniProt P16422 24-265, limits assumed)
T1 sequence (looked up): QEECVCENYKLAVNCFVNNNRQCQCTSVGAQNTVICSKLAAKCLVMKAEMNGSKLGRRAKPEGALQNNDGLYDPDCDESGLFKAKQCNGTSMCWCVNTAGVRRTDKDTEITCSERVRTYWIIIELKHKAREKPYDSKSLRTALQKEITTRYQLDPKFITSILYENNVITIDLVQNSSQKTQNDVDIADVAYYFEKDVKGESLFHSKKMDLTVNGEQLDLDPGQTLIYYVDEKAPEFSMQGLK

B1: ING-1 Fab, heavy chain A102L (Fab, V domains shown)
VH: QIQLVQSGPELKKPGETVKISCKASGYTFTKYGMNWVKQAPGKGLKWMGWINTYTEEPTYGDDFKGRFAFSLETSASTANLQINNLKSEDTATYFCARFGSLVDYWGQGTSVTVSS
VL: DIVMTQAAFSNPVTLGTSGSISCRSSKSLLHSNGITYLYWYLQKPGQSPQLLIYQMSNLASGVPDRFSSSGSGTDFTLRISRVEAEDVGVYYCAQNLELPRTFGGGTKLEMKR
notes: Fab in periplasmic extract
B2: ING-1 Fab, heavy chain D104L (Fab, V domains shown)
VH: QIQLVQSGPELKKPGETVKISCKASGYTFTKYGMNWVKQAPGKGLKWMGWINTYTEEPTYGDDFKGRFAFSLETSASTANLQINNLKSEDTATYFCARFGSAVLYWGQGTSVTVSS
VL: DIVMTQAAFSNPVTLGTSGSISCRSSKSLLHSNGITYLYWYLQKPGQSPQLLIYQMSNLASGVPDRFSSSGSGTDFTLRISRVEAEDVGVYYCAQNLELPRTFGGGTKLEMKR
notes: Fab in periplasmic extract
B3: ING-1 Fab, heavy chain K31L (Fab, V domains shown)
VH: QIQLVQSGPELKKPGETVKISCKASGYTFTLYGMNWVKQAPGKGLKWMGWINTYTEEPTYGDDFKGRFAFSLETSASTANLQINNLKSEDTATYFCARFGSAVDYWGQGTSVTVSS
VL: DIVMTQAAFSNPVTLGTSGSISCRSSKSLLHSNGITYLYWYLQKPGQSPQLLIYQMSNLASGVPDRFSSSGSGTDFTLRISRVEAEDVGVYYCAQNLELPRTFGGGTKLEMKR
notes: Fab in periplasmic extract
B4: ING-1 Fab, heavy chain E57P (Fab, V domains shown)
VH: QIQLVQSGPELKKPGETVKISCKASGYTFTKYGMNWVKQAPGKGLKWMGWINTYTEPPTYGDDFKGRFAFSLETSASTANLQINNLKSEDTATYFCARFGSAVDYWGQGTSVTVSS
VL: DIVMTQAAFSNPVTLGTSGSISCRSSKSLLHSNGITYLYWYLQKPGQSPQLLIYQMSNLASGVPDRFSSSGSGTDFTLRISRVEAEDVGVYYCAQNLELPRTFGGGTKLEMKR
notes: Fab in periplasmic extract
B5: ING-1 Fab, heavy chain D104P (Fab, V domains shown)
VH: QIQLVQSGPELKKPGETVKISCKASGYTFTKYGMNWVKQAPGKGLKWMGWINTYTEEPTYGDDFKGRFAFSLETSASTANLQINNLKSEDTATYFCARFGSAVPYWGQGTSVTVSS
VL: DIVMTQAAFSNPVTLGTSGSISCRSSKSLLHSNGITYLYWYLQKPGQSPQLLIYQMSNLASGVPDRFSSSGSGTDFTLRISRVEAEDVGVYYCAQNLELPRTFGGGTKLEMKR
notes: Fab in periplasmic extract
B6: ING-1 Fab, heavy chain G33V (Fab, V domains shown)
VH: QIQLVQSGPELKKPGETVKISCKASGYTFTKYVMNWVKQAPGKGLKWMGWINTYTEEPTYGDDFKGRFAFSLETSASTANLQINNLKSEDTATYFCARFGSAVDYWGQGTSVTVSS
VL: DIVMTQAAFSNPVTLGTSGSISCRSSKSLLHSNGITYLYWYLQKPGQSPQLLIYQMSNLASGVPDRFSSSGSGTDFTLRISRVEAEDVGVYYCAQNLELPRTFGGGTKLEMKR
notes: Fab in periplasmic extract
B7: ING-1 Fab, heavy chain N52I (Fab, V domains shown)
VH: QIQLVQSGPELKKPGETVKISCKASGYTFTKYGMNWVKQAPGKGLKWMGWIITYTEEPTYGDDFKGRFAFSLETSASTANLQINNLKSEDTATYFCARFGSAVDYWGQGTSVTVSS
VL: DIVMTQAAFSNPVTLGTSGSISCRSSKSLLHSNGITYLYWYLQKPGQSPQLLIYQMSNLASGVPDRFSSSGSGTDFTLRISRVEAEDVGVYYCAQNLELPRTFGGGTKLEMKR
notes: Fab in periplasmic extract
B8: ING-1 Fab, heavy chain E57L (Fab, V domains shown)
VH: QIQLVQSGPELKKPGETVKISCKASGYTFTKYGMNWVKQAPGKGLKWMGWINTYTELPTYGDDFKGRFAFSLETSASTANLQINNLKSEDTATYFCARFGSAVDYWGQGTSVTVSS
VL: DIVMTQAAFSNPVTLGTSGSISCRSSKSLLHSNGITYLYWYLQKPGQSPQLLIYQMSNLASGVPDRFSSSGSGTDFTLRISRVEAEDVGVYYCAQNLELPRTFGGGTKLEMKR
notes: Fab in periplasmic extract
B9: ING-1 Fab, heavy chain D104A (Fab, V domains shown)
VH: QIQLVQSGPELKKPGETVKISCKASGYTFTKYGMNWVKQAPGKGLKWMGWINTYTEEPTYGDDFKGRFAFSLETSASTANLQINNLKSEDTATYFCARFGSAVAYWGQGTSVTVSS
VL: DIVMTQAAFSNPVTLGTSGSISCRSSKSLLHSNGITYLYWYLQKPGQSPQLLIYQMSNLASGVPDRFSSSGSGTDFTLRISRVEAEDVGVYYCAQNLELPRTFGGGTKLEMKR
notes: Fab in periplasmic extract
B10: ING-1 Fab, heavy chain G33T (Fab, V domains shown)
VH: QIQLVQSGPELKKPGETVKISCKASGYTFTKYTMNWVKQAPGKGLKWMGWINTYTEEPTYGDDFKGRFAFSLETSASTANLQINNLKSEDTATYFCARFGSAVDYWGQGTSVTVSS
VL: DIVMTQAAFSNPVTLGTSGSISCRSSKSLLHSNGITYLYWYLQKPGQSPQLLIYQMSNLASGVPDRFSSSGSGTDFTLRISRVEAEDVGVYYCAQNLELPRTFGGGTKLEMKR
notes: Fab in periplasmic extract
B11: ING-1 Fab, heavy chain N52L (Fab, V domains shown)
VH: QIQLVQSGPELKKPGETVKISCKASGYTFTKYGMNWVKQAPGKGLKWMGWILTYTEEPTYGDDFKGRFAFSLETSASTANLQINNLKSEDTATYFCARFGSAVDYWGQGTSVTVSS
VL: DIVMTQAAFSNPVTLGTSGSISCRSSKSLLHSNGITYLYWYLQKPGQSPQLLIYQMSNLASGVPDRFSSSGSGTDFTLRISRVEAEDVGVYYCAQNLELPRTFGGGTKLEMKR
notes: Fab in periplasmic extract
B12: ING-1 Fab, heavy chain D104T (Fab, V domains shown)
VH: QIQLVQSGPELKKPGETVKISCKASGYTFTKYGMNWVKQAPGKGLKWMGWINTYTEEPTYGDDFKGRFAFSLETSASTANLQINNLKSEDTATYFCARFGSAVTYWGQGTSVTVSS
VL: DIVMTQAAFSNPVTLGTSGSISCRSSKSLLHSNGITYLYWYLQKPGQSPQLLIYQMSNLASGVPDRFSSSGSGTDFTLRISRVEAEDVGVYYCAQNLELPRTFGGGTKLEMKR
notes: Fab in periplasmic extract
B13: ING-1 Fab, heavy chain E56P (Fab, V domains shown)
VH: QIQLVQSGPELKKPGETVKISCKASGYTFTKYGMNWVKQAPGKGLKWMGWINTYTPEPTYGDDFKGRFAFSLETSASTANLQINNLKSEDTATYFCARFGSAVDYWGQGTSVTVSS
VL: DIVMTQAAFSNPVTLGTSGSISCRSSKSLLHSNGITYLYWYLQKPGQSPQLLIYQMSNLASGVPDRFSSSGSGTDFTLRISRVEAEDVGVYYCAQNLELPRTFGGGTKLEMKR
notes: Fab in periplasmic extract
B14: ING-1 Fab, heavy chain N52A (Fab, V domains shown)
VH: QIQLVQSGPELKKPGETVKISCKASGYTFTKYGMNWVKQAPGKGLKWMGWIATYTEEPTYGDDFKGRFAFSLETSASTANLQINNLKSEDTATYFCARFGSAVDYWGQGTSVTVSS
VL: DIVMTQAAFSNPVTLGTSGSISCRSSKSLLHSNGITYLYWYLQKPGQSPQLLIYQMSNLASGVPDRFSSSGSGTDFTLRISRVEAEDVGVYYCAQNLELPRTFGGGTKLEMKR
notes: Fab in periplasmic extract
B15: ING-1 Fab, heavy chain D104V (Fab, V domains shown)
VH: QIQLVQSGPELKKPGETVKISCKASGYTFTKYGMNWVKQAPGKGLKWMGWINTYTEEPTYGDDFKGRFAFSLETSASTANLQINNLKSEDTATYFCARFGSAVVYWGQGTSVTVSS
VL: DIVMTQAAFSNPVTLGTSGSISCRSSKSLLHSNGITYLYWYLQKPGQSPQLLIYQMSNLASGVPDRFSSSGSGTDFTLRISRVEAEDVGVYYCAQNLELPRTFGGGTKLEMKR
notes: Fab in periplasmic extract
B16: ING-1 Fab, heavy chain G100P (Fab, V domains shown)
VH: QIQLVQSGPELKKPGETVKISCKASGYTFTKYGMNWVKQAPGKGLKWMGWINTYTEEPTYGDDFKGRFAFSLETSASTANLQINNLKSEDTATYFCARFPSAVDYWGQGTSVTVSS
VL: DIVMTQAAFSNPVTLGTSGSISCRSSKSLLHSNGITYLYWYLQKPGQSPQLLIYQMSNLASGVPDRFSSSGSGTDFTLRISRVEAEDVGVYYCAQNLELPRTFGGGTKLEMKR
notes: Fab in periplasmic extract
B17: ING-1 Fab, heavy chain N52G (Fab, V domains shown)
VH: QIQLVQSGPELKKPGETVKISCKASGYTFTKYGMNWVKQAPGKGLKWMGWIGTYTEEPTYGDDFKGRFAFSLETSASTANLQINNLKSEDTATYFCARFGSAVDYWGQGTSVTVSS
VL: DIVMTQAAFSNPVTLGTSGSISCRSSKSLLHSNGITYLYWYLQKPGQSPQLLIYQMSNLASGVPDRFSSSGSGTDFTLRISRVEAEDVGVYYCAQNLELPRTFGGGTKLEMKR
notes: Fab in periplasmic extract
B18: ING-1 Fab, heavy chain G33A (Fab, V domains shown)
VH: QIQLVQSGPELKKPGETVKISCKASGYTFTKYAMNWVKQAPGKGLKWMGWINTYTEEPTYGDDFKGRFAFSLETSASTANLQINNLKSEDTATYFCARFGSAVDYWGQGTSVTVSS
VL: DIVMTQAAFSNPVTLGTSGSISCRSSKSLLHSNGITYLYWYLQKPGQSPQLLIYQMSNLASGVPDRFSSSGSGTDFTLRISRVEAEDVGVYYCAQNLELPRTFGGGTKLEMKR
notes: Fab in periplasmic extract
B19: XPA23 light chain S93T (Fab, V domains shown)
VH: EVQLLESGGGLVQPGGSLRLSCAASGFTFSKYFMFWVRQAPGKGLEWVSVISPSGGMTRYADSVKGRFTISRDNSKNTLYLQMNSLRAEDTAVYYCARVGYGGNSDYWGQGTLVTVSS
VL: DIQMTQSPSSVSASVGDRLTIICRASQDINRWLAWYQQTPGNAPKLLIHSATSLQSGVPSRFSGSGSGTDFTLTINSLQPEDFATYYCQQADTFPLTFGGGTKVEIK
notes: Single light chain substitution; Fab in periplasmic extract; also called C5A (XPA23) S93T
B20: XPA23 light chain S93V (Fab, V domains shown)
VH: EVQLLESGGGLVQPGGSLRLSCAASGFTFSKYFMFWVRQAPGKGLEWVSVISPSGGMTRYADSVKGRFTISRDNSKNTLYLQMNSLRAEDTAVYYCARVGYGGNSDYWGQGTLVTVSS
VL: DIQMTQSPSSVSASVGDRLTIICRASQDINRWLAWYQQTPGNAPKLLIHSATSLQSGVPSRFSGSGSGTDFTLTINSLQPEDFATYYCQQADVFPLTFGGGTKVEIK
notes: Single light chain substitution; Fab in periplasmic extract; also called C5A (XPA23) S93V

The first assay has as its target T1, Ep-CAM. The experiment in a line: Biacore, Fab periplasmic extract on immobilised Epcam. For orientation: Surface plasmon resonance follows binding to a sensor surface in real time, without labels.
Turning to B1, the binding result is given as “no binding”.

Consider B2, for which the binding result was “no binding”.

For the molecule B3, the “fold difference in affinity vs original” value worked out at 0.6 fold.

B4: the binding result is on record as “no binding”.

On to B5, for which the binding result was “no binding”.

For the molecule B6, the “fold difference in affinity vs original” value stood at 0.04 fold.

Take B7: the binding result is given as “no binding”.

As to B8, the binding result is recorded as “no binding”.

As for B9, the binding result is “no binding”.

For the molecule B10, the “fold difference in affinity vs original” value was found to be 0.01 fold.

Regarding B11, the binding result is listed as “no binding”.

For B12, the binding result is “no binding”.

As to B13, the “fold difference in affinity vs original” value is 0.01 fold.

On to B14, for which the binding result is “no binding”.

In the case of B15, the binding result is given as “no binding”.

For the molecule B16, the binding result was “no binding”.

Regarding B17, the binding result is “no binding”.

For the molecule B18, the “fold difference in affinity vs original” value was found to be 0.06 fold.

In the next assay the target is IL-1β (UniProt P01584 117-269). The experiment in a line: Biacore, Fab periplasmic extract on IL-1β.
On to B19, for which the “fold difference in affinity vs original” value amounted to 1.47 fold.

With B20, the “fold difference in affinity vs original” value stood at 3.81 fold.

The values above are taken from patent publication US20110118131A1 (published 2011).
